Blank lines part the entries; values can stand above or below the binder they belong to.
Experiments:
[1] = biological target: T1, murine CD32B (mCD32B) (murine, UniProt P08101 30-210, limits assumed); assay: sandwich ELISA: mCD32B coated on the plate, diabody preparation diluted 1:25 and 1:50, biotin-conjugated sCD16A as the probe; OD450
T1 construct: Coating protein of the sandwich ELISA for the construct 13 product
T1 sequence (looked up): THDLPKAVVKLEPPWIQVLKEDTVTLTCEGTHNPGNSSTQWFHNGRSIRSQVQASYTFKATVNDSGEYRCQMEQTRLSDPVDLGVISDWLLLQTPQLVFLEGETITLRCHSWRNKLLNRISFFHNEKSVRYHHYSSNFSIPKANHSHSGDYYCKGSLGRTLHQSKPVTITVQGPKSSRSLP
Description: (§1) The binding of diabody molecules derived from the polyprotein precursor molecule construct 13 (SEQ ID NO:97) to murine CD32B (mCD32B) and soluble CD16A (sCD16A) was assayed in a sandwich ELISA. mCD32B was used as the target protein. The secondary probe was biotin conjugated sCD16A.
(§2) ELISA: The binding of diabody molecules secreted into the medium was assayed by sandwich ELISA as described, supra. Murine CD32B was used to coat the plate, i.e., as the target protein, and HRP-conjugated CD16A was used as the probe for the product of the co-transfection of constructs 15 and 16. mCD32B was used as the target protein and biotin-conjugated CD16A was used as the probe for the recombinant system comprising construct 13.
(§3) Conditioned media from the recombinant expression systems comprising constructs 13 was analysed by sandwich ELISA. The ELISA assay tested the binding of the CBD for specificity to either or both of mCD32B and/or CD16 (FIG. 18). CD32B served as the target antigen and CD16A was used as the secondary probe.

[2] = biological target: T2, soluble CD16A (sCD16A) (UniProt P08637 17-208, limits assumed); assay: as above
T2 construct: extracellular domain; Amine-coupled to the chip in SPR; biotin- or HRP-conjugated as the probe in the sandwich ELISAs; also called FcγRIIIA; sCD16A-Biotin
T2 sequence (P08637 17-208 limits assumed): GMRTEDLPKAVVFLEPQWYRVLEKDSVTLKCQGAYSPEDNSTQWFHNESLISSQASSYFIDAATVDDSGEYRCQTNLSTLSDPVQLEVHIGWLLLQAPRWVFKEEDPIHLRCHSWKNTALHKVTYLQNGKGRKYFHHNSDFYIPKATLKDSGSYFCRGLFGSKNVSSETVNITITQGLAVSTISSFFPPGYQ
Description: as §1, §2, §3

[3] = biological target: T2, soluble CD16A (sCD16A); assay: sandwich ELISA: sCD32B coated on the plate, normalised conditioned medium titrated, HRP-conjugated sCD16A as the probe; OD450
Description: The binding of diabody molecules comprising Fc domains and engineered disulfide bonds between the ‘lighter’ and ‘heavier’ polypeptide chains to sCD32B and sCD16A was assayed in a sandwich ELISA. Diabodies assayed were produced by 3 recombinant expression systems: expressing constructs 1 and 10, expressing constructs 1 and 9, and expressing constructs 11 and 12, respectively. sCD32B was used as the target protein. The secondary probe was HRP conjugated sCD16A. Binding of h3G8 was used as control.
(§4) ELISA: The binding of diabody molecules secreted into the medium was assayed by sandwich ELISA as described, supra. Unless indicated, CD32B was used to coat the plate, i.e., as the target protein, and HRP-conjugated CD16 was used as the probe.

[4] = biological target: T3, soluble CD32A (sCD32A) (UniProt P12318 34-217, limits assumed); assay: SPR (BIAcore), sCD32A (negative control receptor) immobilised, diabody injected for 60 s
T3 construct: extracellular domain; Negative control surface in SPR; also called control receptor
T3 sequence (looked up): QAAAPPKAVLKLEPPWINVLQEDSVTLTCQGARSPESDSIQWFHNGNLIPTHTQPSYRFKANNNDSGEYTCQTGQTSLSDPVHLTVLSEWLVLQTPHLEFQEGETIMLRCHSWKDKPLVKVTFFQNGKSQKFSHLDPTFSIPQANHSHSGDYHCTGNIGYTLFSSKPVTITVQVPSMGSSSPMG
Description: The binding of h2B6-h3G8 CBD, h2B6 CMD and h3G8 CMD to sCD16A, sCD32B, and sCD32A (negative control) was assayed by SPR analysis. h3G8 scFv was also tested as a control. (A) Binding to sCD16; (B) Binding to sCD32B and (C) Binding to sCD32A. Diabodies were injected at a concentration of 100 NM, and scFv at a concentration of 200 nM, over receptor surfaces at a flow rate of […] for 60 sec.

[5] = biological target: T4, soluble CD32B (sCD32B) (UniProt P31994 43-217, limits assumed); assay: SPR (BIAcore 1000); receptor amine-coupled (~1000 RU), analyte 6.25-200 nM; units not printed (koff/kon implies nM)
T4 construct: extracellular domain; As immobilised on the BIAcore chip; also called FcγRIIB
T4 sequence (looked up): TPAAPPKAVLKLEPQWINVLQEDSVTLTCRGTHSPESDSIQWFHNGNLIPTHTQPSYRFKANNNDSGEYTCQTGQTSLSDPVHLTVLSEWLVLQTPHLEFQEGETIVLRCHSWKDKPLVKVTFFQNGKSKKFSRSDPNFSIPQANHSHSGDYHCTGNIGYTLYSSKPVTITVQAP
Description: (§5) The binding of h2B6-h3G8 CBD, h2B6 CMD and h3G8 CMD to sCD16A, and sCD32B was assayed by SPR analysis. h3G8 scFv was also tested as a control. (A) Binding of to h3G8 CMD sCD16A; (B) Binding of h2B6-h3G8 CBD to sCD16A; (C) Binding of h3G8 scFv to sCD16A; (D) Binding of h2B6 CMD to sCD32B; and (E) Binding of h2B6-h3G8 CBD to sCD32B. Diabodies were injected at concentrations of 6.25-200 nM over receptor surfaces at a flow rate of […] for 180 sec.
(§6) SPR analysis was also used to estimate the kinetic and equilibrium constants of the CMDs and h2B6-h3G8 CBD to sCD16 and/or sCD32B. Results were compared to the same constants calculated for an h3G8 scFV. FIGS. 7A-E show the graphical results of the SPR analysis. The kinetic on and off rates, as well as the equilibrium constant, calculated from the results depicted in FIG. 7 are provided in Table 13.

[6] = biological target: T2, soluble CD16A (sCD16A); assay: as above
Description: as §5, §6

[7] = biological target: T5, sCD32B-Ig (UniProt P31994 43-217); assay: sandwich ELISA: sCD32B-Ig coated on the plate, diabody titrated, detected with labelled sCD16A; OD450
T5 construct: extracellular domain; also called CD32B (ELISA coat); sCD32B (target protein of the sandwich ELISAs); not shown: Ig part of sCD32B-Ig is not described
T5 sequence (looked up): T4 sequence (looked up)
Description: The binding of h2B6-h3G8 CBD to sCD32B and sCD16A was assayed in a sandwich ELISA. sCD32B was used as the target protein. The secondary probe was HRP conjugated sCD16A. h3G8 CMD, which binds CD16A, was used as control.
ELISA: The binding of eluted and purified diabodies was characterized by ELISA assay, as described in 5.4.2. 50 ul/well of a 2 ug/ml solution of sCD32B-Ig was coated on 96-well Maxisorp plate in Carbonate buffer at 4° C. over night. The plate was washed three times with PBS-T (PBS, 0.1% Tween 20) and blocked by 0.5% BSA in PBS-T for 30 minutes at room temperature. Subsequently, h2B6-h3G8 CBD, h2B6 CMD, or h3G8 CMD were diluted into the blocking buffer in a serial of two-fold dilutions to generate a range of diabody concentrations, from 0.5 μg/ml to 0.001 μg/ml. The plate was then incubated at room temperature for 1 hour. After washing with PBS-T three times, 50 ul/well of 0.2 ug/ml sCD16A-Biotin was added to each well. The plate was again incubated at room temperature for 1 hour. After washing with PBS-T three times, 50 ul/well of a 1:5000 dilution of HRP conjugated streptavidin (Amersham Pharmacia Biotech) was used for detection. The HRP-streptavidin was allowed to incubate for 45 minutes at room temperature. […] The OD450 nm was read by using a 96-well plate reader and SOFTmax software, and results plotted using GraphPadPrism 3.03 software. […]

[8] = biological target: T2, soluble CD16A (sCD16A); assay: sandwich ELISA: sCD32B coated on the plate, normalised conditioned medium titrated, HRP-conjugated sCD16A as the probe; OD450; remark: listed apart in the source
Description: The binding of diabody molecules comprising Fc domains to sCD32B and sCD16A was assayed in a sandwich ELISA. Diabodies assayed were produced by 4 recombinant expression systems: cotransfection of pMGX669+pMGX674, expressing constructs 1 and 6, respectively; cotransfection of pMGX669+pMGX678, expressing constructs 2 and 8, respectively; cotransfection of pMGX677+pMGX674, expressing constructs 7 and 6, respectively; and cotransfection of pMGX677+pMGX678, expressing constructs 7 and 8, respectively. sCD32B was used as the target protein. The secondary probe was HRP conjugated sCD16A.
as §4

B3: h2B6-h3G8 covalent bispecific diabody (CBD) (bispecific antibody)
chain 1: EIVLTQSPDFQSVTPKEKVTFTCRTSQSIGTNIHWYQQKPDQSPKLLIKEVSESISGVPSRFSGSGSGTDFTLTINSLEAEDAATYYCQQSNTWPFTFGGGTKVEIKGGGSGGGGQVTLRESGPALVKPTQTLTLTCTFSGFSLSTSGMGVGWIRQPPGKALEWLAHIWWDDDKRYNPALKSRLTISKDTSKNQVVLTMTNMDPVDTATYYCAQINPAWFAYWGQGTLVTVSSLGGC
chain 2: DIVMTQSPDSLAVSLGERATINCKASQSVDFDGDSFMNWYQQKPGQPPKLLIYTTSNLESGVPDRFSGSGSGTDFTLTISSLQAEDVAVYYCQQSNEDPYTFGQGTKLEIKGGGSGGGGQVQLVQSGAEVKKPGASVKVSCKASGYTFTNYWIHWVRQAPGQGLEWIGVIDPSDTYPNYNKKFKGRVTMTVVVSTSTAYMELRSLRSDDTAVYYCARNGDSDYYSGMDYWGQGTTVTVSSLGGC
notes: also called h2B6-h3G8 CBD; h2B6-h3G8 diabody
binding result [4]: no binding (tested: 100 nM)
Kd [5]: 15 nM
Kd [6]: 22.7 nM
EC50 (read off the curve) [7]: ~0.04 µg/mL

B4: diabody of constructs 1 and 10 (pMGX0669+pMGX0718), N-terminal Fc (bispecific antibody)
chain 1: B3 chain 1
chain 2: not shown
notes: also called constructs 10 and 1; constructs 10+1; copies: 2 + 2
binding result [3]: binds

B6: diabody of constructs 11 and 12, C-terminal hinge-Fc and engineered VL/VH cysteines (bispecific antibody, human IgG1)
chain 1: not shown
chain 2: DIVMTQSPDSLAVSLGERATINCKASQSVDFDGDSFMNWYQQKPGQPPKLLIYTTSNLESGVPDRFSGSGSGTDFTLTISSLQAEDVAVYYCQQSNEDPYTFGQGTKLEIKGGGSGGGGQVQLVQSGAEVKKPGASVKVSCKASGYTFTNYWIHWVRQAPGQCLEWIGVIDPSDTYPNYNKKFKGRVTMTVVVSTSTAYMELRSLRSDDTAVYYCARNGDSDYYSGMDYWGQGTTVTVSSFNRGEC
notes: construct 12 = Hu3G8VL-Hu2B6VH(G44C)-FNRGEC; About 150 kDa on the blot
binding result [3]: binds

Second part, the binder after the results:

binding result [1]: binds
binding result [2]: binds
B1: h2.4G2-h3G8 CBD produced from the polyprotein precursor construct 13 (bispecific antibody)
chain 1: DTVLTQSPASLAVSLGQRATISCKASQSVDFDGDSFMNWYQQKPGQPPKLLIYTTSNLESGIPARFSASGSGTDFTLNIHPVEEEDTATYYCQQSNEDPYTFGGGTKLEIKGGGSGGGGEVELVESGGGLVQPGRSLKLSCAASGFTFSDYYMAWVRQAPTTGLEWVASISYDGGDTHYRDSVKGRFTISRDNAKSSLYLQMDSLRSEDTATYYCATETTGIPTGVMDAWGQGVSVTVSSLGGCGGRAKR
chain 2: DVQMTQSPSNLAASPGESVSINCKASESISKYLAWYLQKPGKANKLLMYDGSTLQSGIPSRFSGSGSGTDFTLTIRSLEPEDFGLYYCQQHYEYPATFGSGTKLEIKGGGSGGGGQVTLKESGPGILQPSQTLSLTCSFSGFSLRTSGMGVGWIRQPSGKGLEWLAHIWWDDDKRYNPALKSRLTISKDTSSNQVFLKIASVDTADTATYYCAQINPAWFAYWGQGTLVTVSSLGGC
modifications: Interchain disulfide between the cysteines of the two LGGC sequences.
notes: In the assay it is the heterodimer of the two chains made by furin cleavage; also called pMGX0750 product; diabody molecules derived from the polyprotein precursor; copies: 1 + 1

binding result [3]: binds
B2: diabody of constructs 1 and 9 (pMGX0669+pMGX0719), N-terminal hinge/Fc (bispecific antibody, human IgG1)
chain 1: B3 chain 1
chain 2: not shown
notes: Designed as tetravalent IgG-like diabody; Tested as normalized conditioned medium; also called constructs 9 and 1; constructs 9+1

binding result [8]: binds
B5: tetrameric IgG-like diabody of constructs 7 and 8 (pMGX0677+pMGX0678) (bispecific antibody)
chain 1: EIVLTQSPDFQSVTPKEKVTFTCRTSQSIGTNIHWYQQKPDQSPKLLIKEVSESISGVPSRFSGSGSGTDFTLTINSLEAEDAATYYCQQSNTWPFTFGGGTKVEIKGGGSGGGGQVTLRESGPALVKPTQTLTLTCTFSGFSLSTSGMGVGWIRQPPGKALEWLAHIWWDDDKRYNPALKSRLTISKDTSKNQVVLTMTNMDPVDTATYYCAQINPAWFAYWGQGTLVTVSSLGGCFNRGEC
chain 2: not shown
notes: heavier chain construct 8 (hu3G8VL-hu2B6VH-LGGC-hinge/Fc of human IgG1, A215V); Tested as normalized conditioned medium

From patent US20070004909A1 (MacroGenics, published 2007)
